The target of test [1] is DCAF1 (UniProt Q9Y4B6).
Test [2] addresses DCAF1 (UniProt Q9Y4B6 1-1507). Nature of the test: cell-based or functional assay.

Some results are limits rather than exact numbers.

DCAF1 (UniProt Q9Y4B6), sequence (Q9Y4B6 whole entry): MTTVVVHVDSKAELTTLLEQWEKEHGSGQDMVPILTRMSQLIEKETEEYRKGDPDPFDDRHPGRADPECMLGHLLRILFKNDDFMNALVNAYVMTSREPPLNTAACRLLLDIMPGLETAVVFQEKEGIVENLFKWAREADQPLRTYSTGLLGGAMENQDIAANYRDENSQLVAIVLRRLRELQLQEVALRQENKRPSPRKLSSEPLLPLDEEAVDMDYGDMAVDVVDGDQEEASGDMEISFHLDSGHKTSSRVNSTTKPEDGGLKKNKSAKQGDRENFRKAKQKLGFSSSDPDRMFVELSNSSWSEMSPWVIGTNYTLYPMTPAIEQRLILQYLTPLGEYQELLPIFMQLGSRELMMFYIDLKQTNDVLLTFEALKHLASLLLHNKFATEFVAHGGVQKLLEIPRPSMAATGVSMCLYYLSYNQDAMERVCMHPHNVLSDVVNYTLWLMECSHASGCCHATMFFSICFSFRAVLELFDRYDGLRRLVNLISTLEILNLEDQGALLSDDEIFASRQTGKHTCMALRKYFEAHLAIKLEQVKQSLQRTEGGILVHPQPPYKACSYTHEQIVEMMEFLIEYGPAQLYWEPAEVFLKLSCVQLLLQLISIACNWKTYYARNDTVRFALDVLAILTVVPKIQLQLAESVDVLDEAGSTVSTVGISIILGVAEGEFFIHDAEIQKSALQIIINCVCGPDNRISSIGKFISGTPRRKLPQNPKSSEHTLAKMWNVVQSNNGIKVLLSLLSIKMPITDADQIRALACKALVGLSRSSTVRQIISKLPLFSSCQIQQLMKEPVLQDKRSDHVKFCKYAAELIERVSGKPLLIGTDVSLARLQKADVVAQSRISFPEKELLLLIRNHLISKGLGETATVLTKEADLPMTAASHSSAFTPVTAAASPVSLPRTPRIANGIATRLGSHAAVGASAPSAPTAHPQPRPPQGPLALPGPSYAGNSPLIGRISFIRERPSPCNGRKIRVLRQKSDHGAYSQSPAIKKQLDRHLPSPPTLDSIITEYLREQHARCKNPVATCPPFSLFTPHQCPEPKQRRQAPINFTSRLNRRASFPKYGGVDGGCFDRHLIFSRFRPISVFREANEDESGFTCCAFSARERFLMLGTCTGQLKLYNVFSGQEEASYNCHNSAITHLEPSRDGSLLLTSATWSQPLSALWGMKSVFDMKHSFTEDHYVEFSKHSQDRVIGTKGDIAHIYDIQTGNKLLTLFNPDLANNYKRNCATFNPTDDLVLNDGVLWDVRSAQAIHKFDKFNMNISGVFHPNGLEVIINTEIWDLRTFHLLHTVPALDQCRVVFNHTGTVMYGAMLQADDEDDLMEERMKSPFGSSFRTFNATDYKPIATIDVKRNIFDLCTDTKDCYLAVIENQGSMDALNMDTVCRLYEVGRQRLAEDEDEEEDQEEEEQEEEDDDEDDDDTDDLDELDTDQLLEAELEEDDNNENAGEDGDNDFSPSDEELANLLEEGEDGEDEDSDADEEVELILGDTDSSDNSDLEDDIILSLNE
DCAF1 (UniProt Q9Y4B6 1-1507), sequence (Q9Y4B6 whole entry): as above

As for “VprQ65R (from UniProt P05928 1-96) (natural protein)”, the sZIP expression (FLAG/GFP signal ratio by Western blot) left in HeLa cells co-expressing FLAG-sZIP and the HA-tagged Vpr protein in test [1] turned out to be 50%.

B1: HA-tagged Vpr from HIV-1 LAI (natural protein)
chain: MEQAPEDQGPQREPHNEWTLELLEELKNEAVRHFPRIWLHGLGQHIYETYGDTWAGVEAIIRILQQLLFIHFRIGCRHSRIGVTQQRRARNGASRS
Consider B1, for which the “sZIP expression (FLAG/GFP signal ratio by Western blot) left in HeLa cells co-expressing FLAG-sZIP and the HA-tagged Vpr protein” value in test [2] is below 15%.

The values are drawn from publication PMC3792905, “HIV-1 Vpr Induces the Degradation of ZIP and sZIP, Adaptors of the NuRD Chromatin Remodeling Complex, by Hijacking DCAF1/VprBP” (PLoS ONE, 2013).
